# Data: article PMC11761708
# Target: protein G-Fc (Fc specific protein G variant)
# Assay: SPR
substance,measurement,value
human Fc (Fc domain of IgG) (domain or fragment),Kd,3.8 nM
